Measurements taken from patent publication US20250368729A1.

Legend:
hIAPP fibril = hIAPP fibril (UniProt P10997); assay: pulldown of 125I-labelled antibody with the substrate pellet
[1] = biological target: Aβ(1-40) amyloid-like fibrils (UniProt P05067); assay: as above
[2] = biological target: KEN hATTR amyloid extract (human) (UniProt P02766); assay: EuLISA, substrate coated on plate
[3] = biological target: synthetic amyloid-like fibrils of recombinant amyloidogenic λ6 variable domain protein (rVλ6Wil); assay: EuLISA, substrate coated on plate
[4] = biological target: SHI ALλ liver amyloid extract; assay: EuLISA, substrate coated on plate
[5] = biological target: Per125 wtATTR amyloid extract (human) (UniProt P02766); assay: EuLISA, substrate coated on plate
[6] = biological target: TAL ALκ liver amyloid extract; assay: EuLISA, substrate coated on plate
[7] = biological target: SNO hereditary (h) ATTR amyloid extract (human) (UniProt P02766); assay: pulldown, labelled antibody
[8] = biological target: KEN hATTR amyloid extract (human) (UniProt P02766); assay: pulldown, labelled antibody

Aβ(1-40) amyloid-like fibrils, sequence (P05067 672-711 limits assumed): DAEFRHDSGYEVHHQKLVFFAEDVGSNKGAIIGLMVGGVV
hIAPP fibril, sequence (P10997 34-70 limits assumed): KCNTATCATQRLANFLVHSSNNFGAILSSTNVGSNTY

Q: How did the bound to substrate (pulldown) (hIAPP fibril) turn out when murine antibody m11-1F4 was run?
A: Its bound to substrate (pulldown) is 5.1%.

Q: And the bound to substrate (pulldown) [1]?
A: The bound to substrate (pulldown) was 4.6%.

Q: And the LogEC50 [2]?
A: Its LogEC50 is 2.39.

Q: What about the Max (maximal level of binding) [2] of the same substance?
A: The Max (maximal level of binding) was 294000.

Q: With hIgG1 control (antibody) as the substance, how does the EC50 [3] read?
A: Its EC50 is 1280 nM.

Q: And the LogEC50 [3]?
A: Its LogEC50 is 5.89 -log(M).

Q: And the Max (maximal level of binding) [3]?
A: The Max (maximal level of binding) was 39.3.

Q: And the LogEC50 [4]?
A: The LogEC50 was 7.88 -log(M).

Q: And the Max (maximal level of binding) [4]?
A: Its Max (maximal level of binding) is 2.5.

Q: What about the LogEC50 [2] of the same substance?
A: Its LogEC50 is 9.06 -log(M).

Q: And the Max (maximal level of binding) [2]?
A: Its Max (maximal level of binding) is -0.8.

Q: What about the LogEC50 [5] of the same substance?
A: Its LogEC50 is 7.92 -log(M).

Q: What about the Max (maximal level of binding) [5] of the same substance?
A: The Max (maximal level of binding) was 8.38.

Q: And the LogEC50 [6]?
A: The LogEC50 was 3 -log(M).

Q: What about the Max (maximal level of binding) [6] of the same substance?
A: Its Max (maximal level of binding) is 2220.

Q: Which results are given for “murine Ig-peptide fusion Igp5 (murine 11-1F4 with peptide p5 fused to the N-terminus of the light chain) (antibody)”?
A: percent bound [7]: 12%; percent bound [8]: 15%; EC50 [2]: 3.56 nM; LogEC50 [2]: 8.45 -log(M); Max (maximal level of binding) [2]: 19.9

Q: How did the LogEC50 [2] turn out when chimeric (c) 11-1F4 (antibody) was run?
A: Its LogEC50 is -1.36.

Q: What about the Max (maximal level of binding) [2] of the same substance?
A: Its Max (maximal level of binding) is 19700.
